This passage reports Km results from PMC4416025, “Characterization of Hydrogen Metabolism in the Multicellular Green Alga Volvox carteri” (PLoS ONE, 2015).

The subject of series [1] is T1, C[n+]1ccc(-c2cc[n+](C)cc2)cc1.
T1 construct: cDNA-derived, N-terminal 6xHis tag with GGG linker; sense cloning primer encodes tag then MDELDKP; tag removal not mentioned
Put plainly: H2 evolution assay, gas chromatography. The class given is biochemical, Volvox carteri. The conditions noted are these: electron donor, methyl viologen reduced in situ by sodium dithionite; anaerobic.

Series [2] has as its system T2, C[n+]1ccc(-c2cc[n+](C)cc2)cc1.
T2 construct: cDNA-derived, N-terminal 6xHis tag with GGG linker; sense cloning primer encodes tag then KCTSAV (no start Met, N-terminus probably truncated); maturation possibly incomplete
Put plainly: H2 evolution assay, gas chromatography. The class given is biochemical, Volvox carteri. The conditions noted are these: electron donor, methyl viologen reduced in situ by sodium dithionite; anaerobic.

On to HYDA1 (Volvox carteri f. nagariensis), for which the Km – broadly, the concentration of substrate that gives half-maximal velocity – in series [1] came out at 2760 µM.
For HYDA2 (Volvox carteri f. nagariensis), in series [2], the Km was found to be 2820 µM.
